Columns and labels:
[1] = target: the molecule itself; experiment: gel shift assay of the Examples
Opaque2 = target: T1, Opaque2 (Zea mays, UniProt P12959 P12959:1-453); experiment: cell_activity; 1x21-bp reporter; 5x21-bp 114.7-fold
T1 sequence: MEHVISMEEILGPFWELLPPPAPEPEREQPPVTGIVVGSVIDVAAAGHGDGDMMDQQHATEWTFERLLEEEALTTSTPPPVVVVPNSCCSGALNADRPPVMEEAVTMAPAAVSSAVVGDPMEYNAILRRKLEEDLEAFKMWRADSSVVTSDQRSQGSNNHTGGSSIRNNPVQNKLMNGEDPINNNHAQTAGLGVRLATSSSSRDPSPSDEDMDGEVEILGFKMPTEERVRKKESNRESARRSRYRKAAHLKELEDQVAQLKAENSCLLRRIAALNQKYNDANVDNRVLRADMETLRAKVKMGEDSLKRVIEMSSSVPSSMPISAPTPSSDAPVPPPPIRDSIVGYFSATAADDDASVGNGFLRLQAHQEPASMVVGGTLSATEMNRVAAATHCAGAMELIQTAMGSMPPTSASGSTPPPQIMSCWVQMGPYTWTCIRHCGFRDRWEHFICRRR
Text: (§1) In addition, reporter plasmids, into which the GUS gene, and one or three repeat(s) of the 12-bp GCN4 motif or one or five repeat(s) of the 21-bp GCN4 motif were inserted, were constructed. For negative control experiments, a reporter plasmid comprising four repeats of a mutant 12-bp GCN4 motif and the GUS reporter gene was used. The mutant 12-bp GCN4 motif has a mutation in the target sequence that is recognized by the RISBZ1 and O2. These plasmid constructs were introduced alone or in combination with other reporter or effector plasmid into rice protoplast cells prepared from its callus culture, and the GUS activity was assayed. When the reporter plasmid or effector plasmid was introduced alone into the protoplast, the GUS activity was detected at a low level. […] Even in the presence of these effector plasmids, the transcriptional activity of the GUS gene downstream of the mutant 12-bp GCN4 motif was the same level as that of background. […] The transcriptional activity of the reporter gene induced by the RISBZ1 gene product was slightly higher than that induced by the O2 gene product. […] 1 to 12 copies of 21-bp GCN motif were assayed, and the transcriptional activity was enhanced proportionately up to 9 copies. […]

RISBZ1 = target: T2, RISBZ1 (Oryza sativa, UniProt Q6ZLB0 SEQ:1-436); experiment: cell_activity; 1x21-bp reporter; 5x21-bp 127.1-fold
T2 sequence: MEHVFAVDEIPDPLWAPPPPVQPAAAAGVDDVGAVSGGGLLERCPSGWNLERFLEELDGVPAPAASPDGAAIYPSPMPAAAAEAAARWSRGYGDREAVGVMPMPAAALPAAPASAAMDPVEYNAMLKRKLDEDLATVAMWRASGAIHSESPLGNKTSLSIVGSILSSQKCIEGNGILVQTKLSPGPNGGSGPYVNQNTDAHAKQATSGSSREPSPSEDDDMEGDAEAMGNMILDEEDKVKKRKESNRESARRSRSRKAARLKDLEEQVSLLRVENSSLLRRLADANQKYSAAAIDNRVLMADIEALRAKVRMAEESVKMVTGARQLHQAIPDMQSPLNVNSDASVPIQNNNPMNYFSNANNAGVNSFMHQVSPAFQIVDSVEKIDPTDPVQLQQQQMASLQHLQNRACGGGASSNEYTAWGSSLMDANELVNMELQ
Text: as §1

| Binder | binding result [1] | activity (Opaque2) | activity (RISBZ1) |
| --- | --- | --- | --- |
| full-length RISBZ1 protein (other, Untagged full-length protein translated in vitro from pET8c (TNT coupled wheat germ extract); the crude extract was used in the gel shift assay; also called rice seed b-Zipper 1) MEHVFAVDEIPDPLWAPPPPVQPAAAAGVDDVGAVSGGGLLERCPSGWNLERFLEELDGVPAPAASPDGAAIYPSPMPAAAAEAAARWSRGYGDREAVGVMPMPAAALPAAPASAAMDPVEYNAMLKRKLDEDLATVAMWRASGAIHSESPLGNKTSLSIVGSILSSQKCIEGNGILVQTKLSPGPNGGSGPYVNQNTDAHAKQATSGSSREPSPSEDDDMEGDAEAMGNMILDEEDKVKKRKESNRESARRSRSRKAARLKDLEEQVSLLRVENSSLLRRLADANQKYSAAAIDNRVLMADIEALRAKVRMAEESVKMVTGARQLHQAIPDMQSPLNVNSDASVPIQNNNPMNYFSNANNAGVNSFMHQVSPAFQIVDSVEKIDPTDPVQLQQQQMASLQHLQNRACGGGASSNEYTAWGSSLMDANELVNMELQ | binds |  |  |
| 21-bp GCN4 reporter (dsDNA) DNA 1: GTTTGTCATGGCTGAGTCATG DNA 2: CATGACTCAGCCATGACAAAC |  | 37.9 fold | 43.9 fold |
